Data on three molecules can be found in patent publication US20170247475A1 (Boehringer Ingelheim, published 2017).

Read-outs that look alike come from different tables or passages of the source.

One assay has as its target T1, hAng2.
T1 construct: also called human Ang2
T1 chain: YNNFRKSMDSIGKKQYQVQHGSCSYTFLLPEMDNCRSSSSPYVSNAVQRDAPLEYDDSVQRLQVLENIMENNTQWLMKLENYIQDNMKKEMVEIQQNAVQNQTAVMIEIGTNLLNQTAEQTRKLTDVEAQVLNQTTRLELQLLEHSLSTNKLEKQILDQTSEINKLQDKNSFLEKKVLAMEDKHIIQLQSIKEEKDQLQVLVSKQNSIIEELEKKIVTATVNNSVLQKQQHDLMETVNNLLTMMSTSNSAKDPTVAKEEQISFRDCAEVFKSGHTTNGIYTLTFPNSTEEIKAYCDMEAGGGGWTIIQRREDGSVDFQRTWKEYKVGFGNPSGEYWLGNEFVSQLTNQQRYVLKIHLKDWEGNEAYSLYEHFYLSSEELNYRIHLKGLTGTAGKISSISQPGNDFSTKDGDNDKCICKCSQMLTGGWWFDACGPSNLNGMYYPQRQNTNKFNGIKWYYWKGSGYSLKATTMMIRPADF
The assay is described as follows: competition ELISA, blocking of hAng2 binding to hTie2.

Another assay concerns the target T2, mAng2.
T2 construct: also called mouse Ang2
T2 chain: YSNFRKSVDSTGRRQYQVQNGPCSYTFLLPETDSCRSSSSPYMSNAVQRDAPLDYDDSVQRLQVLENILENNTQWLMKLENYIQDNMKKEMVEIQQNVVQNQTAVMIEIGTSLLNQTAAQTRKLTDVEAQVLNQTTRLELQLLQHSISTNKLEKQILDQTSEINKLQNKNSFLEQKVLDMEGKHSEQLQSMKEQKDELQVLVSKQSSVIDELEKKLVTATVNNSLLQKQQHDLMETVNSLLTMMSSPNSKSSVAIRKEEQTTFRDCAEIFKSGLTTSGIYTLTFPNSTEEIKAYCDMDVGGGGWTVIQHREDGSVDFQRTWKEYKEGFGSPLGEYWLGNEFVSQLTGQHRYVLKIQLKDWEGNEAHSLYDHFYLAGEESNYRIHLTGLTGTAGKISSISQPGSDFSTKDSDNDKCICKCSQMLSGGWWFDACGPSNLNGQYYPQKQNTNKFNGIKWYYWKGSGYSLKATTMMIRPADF
The assay is described as follows: competition ELISA, blocking of mAng2 binding to mTie2.

The target in assay [1] is VEGF. The assay is described as follows: cell-based or functional assay.
For assay [2], the target named is T3, recombinant human VEGF165 (human, UniProt P15692-4 27-191).
T3 construct: also called hVEGF165; rhVEGF165
The assay is described as follows: VEGF165/VEGFR2 blocking AlphaScreen.

Assay [3] concerns the target T3, recombinant human VEGF165. The assay is described as follows: Biacore on VEGF165 (Example 5.5). How it is done: (§1) Samples are injected for 2 min and allowed to dissociate up to 20 min at a flow rate of 45 μI/min. In between sample injections, the chip surface is regenerated with 100 mM HCl. HBS-EP+(Hepes buffer pH7.4+EDTA) is used as running buffer. Binding curves are fitted using a Two State Reaction model by Biacore T100 Evaluation Software v2.0.1.

Assay [4] has as its target T3, recombinant human VEGF165. Kind of assay: hVEGF165/hVEGFR2-Fc competition ELISA.
Assay [5] deals with T3, recombinant human VEGF165. The assay is described as follows: binding ELISA, coated rhVEGF165.
Assay [6] addresses T3, recombinant human VEGF165. Kind of assay: hVEGF165/hVEGFR1-Fc competition AlphaScreen. How it is done: (§2) Finally, streptavidin donor beads (20 μg/ml) are added and after 1 hour of incubation in the dark, fluorescence is measured on the Envision microplate reader.
For assay [7], the target named is T3, recombinant human VEGF165. Kind of assay: Biacore, periplasmic extract on hVEGF165 chip, two phase decay fit. How it is done: (§3) Dissociation rates of inhibitory VHHs are analyzed on Biacore (Biacore T100 instrument, GE Healthcare). HBS-EP+ buffer is used as running buffer and experiments are performed at 25° C. […] After immobilization, surfaces are deactivated with 10 min injection of 1M ethanolamine pH8.5. A reference surface is activated and deactivated with respectively EDC/NHS and ethanolamine. Periplasmic extracts of VHHs are injected at a 10-fold dilution in running buffer for 2 min at 45 μl/min and allowed to dissociate for 10 or 15 min. Between different samples, the surfaces are regenerated with regeneration buffer. Data are double referenced by subtraction of the curves on the reference channel and of a blank running buffer injection. […] is evaluated by fitting a two phase decay model in the Biacore T100 Evaluation software v2.0.1.
Target sequence in this assay (P15692 other isoform, or with tags, fused parts or gaps limits assumed): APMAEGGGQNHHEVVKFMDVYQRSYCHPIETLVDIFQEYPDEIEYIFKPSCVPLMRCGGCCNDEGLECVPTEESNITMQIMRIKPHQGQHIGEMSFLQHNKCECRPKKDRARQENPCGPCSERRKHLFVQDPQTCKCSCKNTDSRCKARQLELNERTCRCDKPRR

Assay [8] addresses T3, recombinant human VEGF165. Kind of assay: kd1; SPR Biacore T100, hVEGF165 on chip, Two State Reaction model. Here is the method: as §1
(§4) ^{(a)}Heterogeneous binding curve resulting in no 1:1 fit, curves are fitted using a Two State Reaction model by Biacore T100 Evaluation Software v2.0.1

For assay [9], the target named is T3, recombinant human VEGF165. Kind of assay: Biacore, periplasmic extract on hVEGF165 chip. How it is done:
as §3
Target sequence in this assay (P15692 other isoform, or with tags, fused parts or gaps limits assumed): as above

In another assay the target is T4, human PIGF (human, UniProt P49763-2 21-149, limits assumed).
T4 construct: also called hPIGF; PLGF
T4 sequence (looked up): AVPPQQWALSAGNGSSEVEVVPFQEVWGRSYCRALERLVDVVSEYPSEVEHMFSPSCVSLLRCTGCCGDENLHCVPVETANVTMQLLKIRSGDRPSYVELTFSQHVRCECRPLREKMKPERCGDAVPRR
Kind of assay: solid phase binding ELISA. Here is the method: (§5) Binding to VEGFB, VEGFC, VEGFD and PIGF is assessed via a solid phase binding ELISA. In brief, VEGFB, VEGFC, VEGFD and PIGF (R&D Systems, Minneapolis, Minn., USA) are coated overnight at 4° C. at 1 μg/mL in a 96-well MaxiSorp plate (Nunc, Wiesbaden, Germany). Wells are blocked with a casein solution (1% in PBS). […] As positive controls serial dilutions of the appropriate receptors are taken along and detected with horseradish peroxidase (HRP)-conjugated goat anti-human IgG, Fc specific antibody (Jackson Immuno Research Laboratories Inc., West Grove, Pa., USA) and a subsequent enzymatic reaction in the presence of the substrate TMB (3,3′,5,5′-tetramentylbenzidine) (Pierce, Rockford, Ill., USA).

A further assay has as its target T5, human VEGF-B (human, UniProt P49765-2 22-188, limits assumed).
T5 construct: also called hVEGF-B
T5 sequence (looked up): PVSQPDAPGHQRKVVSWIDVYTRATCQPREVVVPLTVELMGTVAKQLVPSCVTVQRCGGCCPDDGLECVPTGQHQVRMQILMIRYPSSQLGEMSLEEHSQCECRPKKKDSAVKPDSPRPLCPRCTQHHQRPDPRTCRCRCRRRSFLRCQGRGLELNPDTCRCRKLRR
Kind of assay: solid phase binding ELISA. Here is the method:
as §5

Another assay addresses T6, human VEGF-C (human, UniProt P49767 103-227).
T6 construct: also called hVEGF-C
T6 sequence (looked up): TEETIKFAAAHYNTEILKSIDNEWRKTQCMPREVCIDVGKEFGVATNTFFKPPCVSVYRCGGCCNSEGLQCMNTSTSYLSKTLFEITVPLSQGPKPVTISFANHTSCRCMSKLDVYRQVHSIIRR
Kind of assay: solid phase binding ELISA. How it is done: as §5

Another assay concerns the target T7, human VEGF-D (human, UniProt O43915 93-201).
T7 construct: also called hVEGF-D
T7 sequence (looked up): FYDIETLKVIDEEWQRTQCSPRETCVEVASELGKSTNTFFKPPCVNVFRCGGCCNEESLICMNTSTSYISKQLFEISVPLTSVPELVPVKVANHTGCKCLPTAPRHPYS
Kind of assay: solid phase binding ELISA. Here is the method: as §5

Assay [10] addresses T3, recombinant human VEGF165. The assay is described as follows: hVEGF165/hVEGFR2-Fc competition AlphaScreen. Here is the method: as §2
Assay [11] deals with T3, recombinant human VEGF165. Kind of assay: hVEGF165/hVEGFR1-Fc competition ELISA.
The target in assay [12] is VEGF. The assay is described as follows: cell-based or functional assay. This is another data set of the same source.
For assay [13], the target named is T8, recombinant mouse VEGF164 (mouse, UniProt Q00731-2 27-190).
T8 construct: biotinylated in the mVEGFR2 AlphaScreen; also called rmVEGF164; mVEGF164
T8 sequence (looked up): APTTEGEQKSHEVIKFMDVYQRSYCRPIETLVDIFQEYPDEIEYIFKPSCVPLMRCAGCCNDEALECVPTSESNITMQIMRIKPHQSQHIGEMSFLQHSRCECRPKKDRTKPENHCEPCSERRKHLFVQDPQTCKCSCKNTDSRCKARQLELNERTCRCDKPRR
Kind of assay: binding ELISA, coated rmVEGF164. How it is done: Cross-reactivity to mouse VEGF164 is determined using a binding ELISA. […] Wells are blocked with a casein solution (1% in PBS). […] A mouse VEGF164 reactive mAb is included as positive control.

For assay [14], the target named is T3, recombinant human VEGF165. The assay is described as follows: ka1; SPR Biacore T100, hVEGF165 on chip, Two State Reaction model. How it is done: as §1, §4
Assay [15] addresses T3, recombinant human VEGF165. Kind of assay: SPR Biacore T100, hVEGF165 on chip, Two State Reaction model. Here is the method: as §1, §4
Assay [16] addresses T9, recombinant human VEGF121 (human, UniProt P15692-9 27-147).
T9 construct: also called rhVEGF121; hVEGF121
T9 sequence (looked up): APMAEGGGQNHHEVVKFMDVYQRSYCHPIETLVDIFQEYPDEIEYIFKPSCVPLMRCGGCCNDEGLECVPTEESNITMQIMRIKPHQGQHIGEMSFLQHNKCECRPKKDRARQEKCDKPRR
Kind of assay: binding ELISA, coated rhVEGF121. How it is done: Binding to recombinant human VEGF121 is assessed via a solid phase binding ELISA. Briefly, recombinant human VEGF121 (R&D Systems, Minneapolis, Minn., USA) is coated overnight at 4° C. at 1 μg/mL in a 96-well MaxiSorp plate (Nunc, Wiesbaden, Germany). Wells are blocked with a casein solution (1% in PBS).

B1: ANGBII00002 (VHH)
bivalent VHH: EVQLVESGGGLVQAGGSLRLSCAASGFTFDDYALGWFRQAAGKEREGVSCIRCSDGSTYYADSVKGRFTISSDNAKNTVYLQMNSLKPEDTAVYYCAASIVPRSKLEPYEYDAWGQGTLVTVSSGGGGSGGGGSGGGGSGGGGSGGGGSGGGGSGGGGSGGGGSEVQLVESGGGLVQAGGSLRLSCAASGFTFDDYALGWFRQAAGKEREGVSCIRCSDGSTYYADSVKGRFTISSDNAKNTVYLQMNSLKPEDTAVYYCAASIVPRSKLEPYEYDAWGQGTLVTVSS
notes: homodimeric anti-Ang2 VHH; also called 1D01-40gs-1D01
With B1, the “IC50 (read off the curve)” value with hAng2 was about 0.02 nM; with mAng2, about 0.03 nM.

B2: VEGFBII037 (VHH)
VHH: DVQLVESGGGLVQPGGSLRLSCAASGRTFSSYSMGWFRQAPGKEREFVVAISKGGYKYDAVSLEGRFTISRDNAKNTVYLQMNSLRPEDTAVYYCASSRAYGSSRLRLADTYEYWGQGTLVTVSS
notes: also called VEGFBII0037
With B2, in the assay with VEGF [1], the “% inhibition, VEGF HUVEC proliferation assay” value stood at 78% and the “IC50 (nM), VEGF HUVEC proliferation assay” value amounted to 1.54 nM. In [2], the “% inhibition” value turned out to be 100% and the IC50 worked out at 0.3 nM. For the same molecule, the Kd in [3] came to 0.27 nM.

B3: VEGFBII23A06 (VHH)
VHH: EVQLVESGGGLVQPGDSLKLSCAFSGRTFSSYSMGWFRQAQGKEREFVVAISSGGFIYDAVSLEGRFTISRDNTKNTVYLQTPSLKPEDTAVYYCAASRAYGSSRLRLADTYDYWGQGTQVTVSS
notes: also called 23A6; VEGFBII23A6
In the case of B3, the “% inhibition” value worked out at 100% in assay [4], 46% in assay [6], 100% in [10] and 55% in assay [11]. In addition, the IC50 in assay [4] is 3 nM; in [6] it was 0.4 nM; in assay [10], 0.25 nM; in assay [11], 0.9 nM. Moreover, the values for the EC50 in [5] and in assay [16] were 0.531 nM and 0.928 nM, respectively. Also, the “% fast” value in assay [7] was determined as 13%. Also, in [8], the koff was 0.057 s⁻¹. For the same molecule, in [9], the “Binding level (RU)” value came to 547 RU. The binding result (with human PIGF; with human VEGF-B; in the assay with human VEGF-C; with human VEGF-D; in assay [13]) was “no binding (tested: 500 nM-32 pM)” throughout. The “% inhibition, VEGF HUVEC proliferation assay” value in the assay with VEGF [12] turned out to be 73%. Moreover, the “IC50 (nM), VEGF HUVEC proliferation assay” value in the assay with VEGF [12] turned out to be 4.29 nM. Further, the kon in assay [14] came to 420000 M⁻¹ s⁻¹. For the same molecule, the Kd in assay [15] was found to be 0.7 nM. In addition, the kd2 in assay [15] was determined as 0.0001 s⁻¹.
